These results are taken from patent US20230272104A1 (LEGEND BIOTECH IRELAND, published 2023).

The target in test [1] is T1, human CD20 (membrane spanning 4-domains A1, MS4A1) on cells (human, UniProt P11836 1-297).
T1 construct: whole, on cells; Target cells used: Raji, K562-CD20, CHO-CD20, Daudi, RPMI-8226 (very low CD20); also called CD20 receptor; CD20 antigen
T1 sequence (looked up): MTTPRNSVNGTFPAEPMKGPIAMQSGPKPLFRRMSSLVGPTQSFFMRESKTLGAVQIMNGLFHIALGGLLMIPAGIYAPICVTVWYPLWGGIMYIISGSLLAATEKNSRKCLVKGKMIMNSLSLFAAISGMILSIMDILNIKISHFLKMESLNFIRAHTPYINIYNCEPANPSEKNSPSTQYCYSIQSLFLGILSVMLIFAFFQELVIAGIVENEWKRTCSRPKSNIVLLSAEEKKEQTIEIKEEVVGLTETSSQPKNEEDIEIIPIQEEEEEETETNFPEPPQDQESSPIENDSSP
Kind of test: flow cytometry, mAb titrated on Raji cells, PE anti-human IgG1 Fc detection. From the text: (§1) Each of three exemplary of anti-CD20 VHH sequences (clone ID: VHH-273, VHH-466 and VHH-496) with human IgG1 Fc fragment sequence (SEQ ID NO: 159) were cloned into a mammalian expression vector—pcDNA3.4, to facilitate the recombinant protein expression. The DNA codons were further optimized for optimal expression in mammalian host cell—Expi293F. The antibodies were harvested from the supernatant of cell culture, one-step purified by MabSelect SuRe LX and sterilized via a 0.2 μm filter. The purified antibody concentrations were determined by A280 and reached 2-6 mg/mL with ˜90% purity. Anti-CD20 scFv-huIgG1Fc mAb with amino acid sequence of Rituximab (C2B8) scFv shown in SEQ ID NO: 158 and anti-CD20 Fab-huIgG1Fc mAb with amino acid sequences of Leul6 VH-CH1 and VL-CL shown in SEQ ID NO: 163 and SEQ ID NO: 164 were used as positive controls for the cell surface binding assay. CD20 positive cell lines—Raji, K562-CD20 and negative cell line—K562 were re-suspended in complete culture medium, cells concentration was diluted to 1×10⁶ cells/mL and the staining was performed in 2×10⁵ cells per well. The mAbs were serially diluted from maximal concentration of 2000 nM (3-fold reduction, 12 pts) and added according to the experimental plan and protocol. The mAbs and cells were co-incubated for 1 hour at 4° C. Then, the cells were washed with 2(X) μL of DPBS+0.5% FBS and spun at 300 g for 5 mins, 4° C. The cells were stained with the detection antibody—PE-conjugated mouse anti-human IgG1 Fc (BioLegend, Cat. #409304, 1:100) for 40 mins at 4° C. The cells were then washed again and re-suspended with 200 μL of DPBS+0.5% FBS for flow cytometric analysis on a NovoCyte Flow Cytometer (ACEA Biosciences). The FACS data was analyzed by Novoexpress software, and the MFI (median fluorescent intensity) was analyzed by GraphPad PRISM version 6.0.
On the technique in general: Flow cytometry measures light scatter and fluorescence of single cells or particles in a stream.

Test [2] addresses T1, human CD20 (membrane spanning 4-domains …). The test can be described thus: flow cytometry, mAb titrated on K562-CD20 cells, PE anti-human IgG1 Fc detection.
From the text: as §1, with “The mAbs and cells were co-incubated for 1 hour at 4° C. Then, the cells were washed with 2(X) μL of DPBS+0.5% FBS and spun at 300 g for 5 mins, 4° C. The cells were stained with the detection antibody—PE-conjugated mouse anti-human IgG1 Fc (BioLegend, Cat. #409304, 1:100) for 40 mins at 4° C. The cells were then washed again and re-suspended with 200 μL of DPBS+0.5% FBS for flow cytometric analysis on a NovoCyte Flow Cytometer (ACEA Biosciences).” left out

B1: Anti-CD20 scFv-huIgG1Fc mAb (Fc fusion)
chain: QIVLSQSPAILSASPGEKVTMTCRASSSVSYIHWFQQKPGSSPKPWIYATSNLASGVPVRFSGSGSGTSYSLTISRVEAEDAATYYCQQWTSNPPTFGGGTKLEIKGGGGSGGGGSGGGGSQVQLQQPGAELVKPGASVKMSCKASGYTFTSYNMHWVKQTPGRGLEWIGAIYPGNGDTSYNQKFKGKATLTADKSSSTAYMQLSSLTSEDSAVYYCARSTYYGGDWYFNVWGAGTTVTVSA
notes: also called Rituximab (C2B8) scFv-huIgG1Fc; not shown: human IgG1 Fc by the name
For B1, the EC50 in test [1] was found to be 75.3 nM; in test [2] it was 41.1 nM.

B2: VHH-440-huIgG1Fc mAb (Fc fusion)
chain: QVHLMESGGGSVQAGGSLRLSCQASAYIRVFYLMGWFRQAPGKEREEVARVTADGFTNHAASVKGRFTISKDNAKNTLYLQMDSMKSEDTAVYYCAAGRTWNSGFEYWGQGTQVTVSS
notes: not shown: human IgG1 Fc by the name
Take B2: the EC50 was 11.1 nM in test [1] and 6.24 nM in test [2].

B3: Anti-CD20 Fab-huIgG1Fc mAb (antibody, V domains shown)
VH: EVQLQQSGAELVKPGASVKMSCKASGYTFTSYNMHWVKQTPGQGLEWIGAIYPGNGDTSYNQKFKGKATLTADKSSSTAYMQLSSLTSEDSADYYCARSNYYGSSYWFFDVWGAGTTVTVSS
VL: DIVLTQSPAILSASPGEKVTMTCRASSSVNYMDWYQKKPGSSPKPWIYATSNLASGVPARFSGSGSGTSYSLTISRVEAEDAATYYCQQWSFNPPTFGGGTKLEIKR
notes: also called Leul6 (Leu16) Fab-huIgG1Fc; not shown: human IgG1 Fc by the name
In the case of B3, in test [1], the EC50 came to 13.5 nM.

One may read the EC50 as the midpoint of the concentration-response curve. Low values mean a more potent agent, high ones a less potent agent.
